Consider 167 variants from the RNAGym collection of RNA variant scans (doi:10.7554/elife.80360).

The chains are these.
B1: HDV Ribozyme (parent)
chain: GGCCGGCAUGGUCCCAGCCUCCUCGCUGGCGCCGGCUGGGCAACAUUCCGAGGGGACCGUCCCCUCGGUAAUGGCGAAUGGGACCCA

The variants in the series derive from B1. Kind of series: self-cleavage, relative activity (ratio to wild type); higher = more cleavage; co-transcriptional.
U9G A70G: the self-cleavage came to 0.831.

As to U9C U27G, the self-cleavage came to 0.914.

As to U9G C21U, the self-cleavage was 0.332.

As to U9G C21A, the self-cleavage stood at 0.123.

Consider U9A C48G, for which the self-cleavage turned out to be 1.31.

Take U9C A45C: the self-cleavage was 0.957.

U9G C58A: the self-cleavage amounted to 1.42.

Consider U9A C66G, for which the self-cleavage came to 1.1.

As for U9C C75G, the self-cleavage is 0.

Turning to U9C U23C, the self-cleavage came to 1.06.

In the case of U9G C85A, the self-cleavage was 1.02.

On to U9A C22G, for which the self-cleavage is 0.0519.

With U9C C32G, the self-cleavage was 0.

As for A8U U79G, the self-cleavage is 0.289.

As for A8U U79A, the self-cleavage turned out to be 0.525.

Regarding U9A G82C, the self-cleavage worked out at 0.332.

U9A C61A: the self-cleavage was 1.16.

As for U9G C30A, the self-cleavage stood at 0.653.

Consider U9C A51U, for which the self-cleavage was determined as 1.06.

For the variant U9A G25C, the self-cleavage worked out at 0.0615.

Consider U9G A56G, for which the self-cleavage came out at 0.895.

Consider U9G C49G, for which the self-cleavage came out at 0.886.

On to U9G C13A, for which the self-cleavage came to 0.831.

For the variant U9A G53C, the self-cleavage turned out to be 0.974.

Take U9C G35C: the self-cleavage turned out to be 0.519.

On to U9G C66A, for which the self-cleavage worked out at 0.594.

For U9C A43G, the self-cleavage was found to be 0.755.

For the variant U9A A42U, the self-cleavage worked out at 0.688.

In the case of U9A G81A, the self-cleavage is 0.396.

U9A A43C: the self-cleavage stood at 0.447.

Regarding U9A G74A, the self-cleavage is 0.491.

As to U9C G38A, the self-cleavage is 0.123.

U9C G38U: the self-cleavage came to 0.486.

As to U9C A87U, the self-cleavage was determined as 1.06.

Consider U9A C86U, for which the self-cleavage amounted to 1.09.

For U9G G25A, the self-cleavage was found to be 0.0755.

For U9G G25U, the self-cleavage is 0.383.

As to U9C C33A, the self-cleavage turned out to be 0.489.

Turning to U9G C41G, the self-cleavage turned out to be 0.831.

In the case of U9C C36U, the self-cleavage is 0.682.

U9C C36A: the self-cleavage came to 0.178.

For U9G A77U, the self-cleavage turned out to be 0.604.

In the case of A8U U65C, the self-cleavage was determined as 0.895.

For the variant U9A C84U, the self-cleavage worked out at 0.749.

As to U9G G31A, the self-cleavage amounted to 0.675.

For U9G G31U, the self-cleavage amounted to 0.554.

A8U U46G: the self-cleavage was 0.604.

U9C G67A: the self-cleavage worked out at 1.12.

For the variant U9A U27A, the self-cleavage was 0.9.

Regarding U9A U27C, the self-cleavage was found to be 0.795.

On to U9C C15G, for which the self-cleavage is 0.104.

In the case of U9G G29U, the self-cleavage worked out at 0.

U9A U23A: the self-cleavage is 1.12.

For U9A U47A, the self-cleavage worked out at 1.09.

In the case of U9G C22U, the self-cleavage is 0.44.

Take U9G C22A: the self-cleavage came out at 0.314.

As to U9G G11A, the self-cleavage came to 0.346.

In the case of U9G C62A, the self-cleavage turned out to be 1.14.

With U9A C36U, the self-cleavage was 1.02.

Turning to U9A C36A, the self-cleavage was 0.122.

Turning to U9A C36G, the self-cleavage amounted to 0.369.

Take U9A C57G: the self-cleavage is 1.18.

Regarding U9A A56C, the self-cleavage stood at 1.16.

U9A A56G: the self-cleavage amounted to 0.95.

U9C G50A: the self-cleavage worked out at 0.877.

In the case of U9G C36G, the self-cleavage is 0.115.

For the variant U9A C64A, the self-cleavage was determined as 1.04.

Turning to U9A G17A, the self-cleavage was 0.906.

Regarding U9C G10C, the self-cleavage came out at 0.767.

With U9A C75U, the self-cleavage stood at 0.145.

As to U9A C75A, the self-cleavage was determined as 0.0573.

U9C G74U: the self-cleavage came out at 0.467.

For the variant U9C C57G, the self-cleavage was found to be 1.17.

With U9A C32G, the self-cleavage was determined as 0.0489.

Consider U9A C18G, for which the self-cleavage is 0.369.

For the variant U9A C18A, the self-cleavage worked out at 0.107.

Take U9A C18U: the self-cleavage was found to be 0.991.

In the case of U9C A77G, the self-cleavage was found to be 1.05.

With U9C C41A, the self-cleavage turned out to be 1.19.

For the variant U9G G17A, the self-cleavage was determined as 0.225.

Consider U9C C14G, for which the self-cleavage came out at 0.208.

Turning to U9A C14A, the self-cleavage was found to be 0.65.

For U9G C64U, the self-cleavage turned out to be 0.86.

For the variant U9G C64A, the self-cleavage turned out to be 0.831.

U9C U12A: the self-cleavage was 0.511.

Consider U9C U12C, for which the self-cleavage was 0.119.

As for U9C U12G, the self-cleavage was 1.07.

For the variant U9C C63A, the self-cleavage stood at 1.14.

U9G C61A: the self-cleavage stood at 1.33.

With U9G C15G, the self-cleavage is 0.739.

Regarding U9A G55A, the self-cleavage is 1.09.

As to U9A C26U, the self-cleavage is 1.12.

With A8U U47G, the self-cleavage stood at 0.831.

Regarding U9C G68C, the self-cleavage stood at 0.89.

With U9C U79C, the self-cleavage was 0.499.

With U9G C75A, the self-cleavage is 0.201.

In the case of U9G C75G, the self-cleavage came to 0.0791.

Take U9C G28A: the self-cleavage was found to be 0.101.

On to U9G A43C, for which the self-cleavage came out at 0.415.

For the variant U9G A43G, the self-cleavage was determined as 0.475.

Regarding U9A A16U, the self-cleavage stood at 1.19.

For the variant U9A U65C, the self-cleavage came to 1.07.

For the variant U9C G34A, the self-cleavage is 0.208.

Consider U9C G34C, for which the self-cleavage is 0.361.

Regarding U9A U60G, the self-cleavage worked out at 0.9.

Consider U9A U60C, for which the self-cleavage was 1.02.

As for U9C U46C, the self-cleavage amounted to 0.831.

With U9C G29A, the self-cleavage was 0.222.

On to U9C C66U, for which the self-cleavage is 0.919.

For the variant U9A G11U, the self-cleavage stood at 0.312.

Turning to U9C U60A, the self-cleavage was determined as 0.862.

Regarding U9C U60C, the self-cleavage stood at 1.11.

Take U9G G50A: the self-cleavage was 1.18.

Regarding U9G A16U, the self-cleavage worked out at 1.14.

On to U9G G28U, for which the self-cleavage was 0.151.

As for U9C C84A, the self-cleavage amounted to 0.65.

As to U9C C84G, the self-cleavage turned out to be 0.489.

With U9G G52A, the self-cleavage was determined as 0.712.

With U9G G52C, the self-cleavage came to 0.95.

As for U9A G34C, the self-cleavage was determined as 0.375.

Take U9A U72A: the self-cleavage turned out to be 0.712.

For U9G C84U, the self-cleavage stood at 0.831.

As to U9C C26U, the self-cleavage turned out to be 1.17.

On to U9C G73A, for which the self-cleavage is 0.675.

Take U9C G73C: the self-cleavage came to 0.291.

Turning to U9A G52C, the self-cleavage was found to be 1.16.

Consider U9A G52U, for which the self-cleavage was 0.858.

With U9C U72C, the self-cleavage is 0.485.

For the variant U9C G39U, the self-cleavage turned out to be 0.665.

On to U9A U46G, for which the self-cleavage turned out to be 1.08.

With U9A U46C, the self-cleavage amounted to 0.831.

As to U9C C30U, the self-cleavage stood at 0.636.

As to U9A C13G, the self-cleavage stood at 0.111.

U9G A42G: the self-cleavage worked out at 0.727.

With U9C C61G, the self-cleavage came to 0.755.

Regarding U9C C62A, the self-cleavage is 1.14.

Regarding U9C C62U, the self-cleavage was determined as 0.869.

On to U9C G40U, for which the self-cleavage is 0.449.

On to U9G C63A, for which the self-cleavage came to 0.935.

For U9G C44G, the self-cleavage turned out to be 0.7.

Regarding U9C A83C, the self-cleavage was determined as 0.475.

Consider U9A A70G, for which the self-cleavage amounted to 0.918.

Take U9C G31U: the self-cleavage came to 0.399.

Take U9C G31A: the self-cleavage turned out to be 0.269.

For the variant U9C A70G, the self-cleavage was 1.25.

Regarding U9A G59U, the self-cleavage turned out to be 1.41.

As for U9A C63A, the self-cleavage is 1.25.

In the case of U9A U12C, the self-cleavage was found to be 0.289.

Consider U9G A71G, for which the self-cleavage was determined as 0.831.

Turning to U9G A71U, the self-cleavage came to 1.13.

On to U9G A71C, for which the self-cleavage turned out to be 0.787.

On to U9G C32G, for which the self-cleavage is 0.317.

Consider U9C A71G, for which the self-cleavage came to 0.997.

U9C C24U: the self-cleavage was found to be 1.05.

For U9C C24A, the self-cleavage is 0.864.

For the variant U9C C24G, the self-cleavage came to 0.0536.

As for U9A C85A, the self-cleavage stood at 0.902.

In the case of U9A C85G, the self-cleavage came out at 1.13.

As for U9G G40A, the self-cleavage amounted to 1.29.

U9G G40C: the self-cleavage was 0.437.

As for U9G G34U, the self-cleavage was found to be 0.237.

As to U9A U69G, the self-cleavage is 1.06.

On to U9C C58G, for which the self-cleavage is 1.14.

As to U9C C64G, the self-cleavage was 0.95.

On to U9G C14A, for which the self-cleavage was determined as 0.831.

Consider U9A A51C, for which the self-cleavage is 0.923.

As for U9G A87C, the self-cleavage stood at 0.969.
